Measured values published in the supplement of paper PMC7125110.
± gives the standard error. Variants at the floor of the assay were thinned out.

B1: glmS ribozyme (parent)
chain: AUAAAAGCGCCAGAACUACAGAAAUGUAGUUGACGAGGAGGAGGUUUAUCGAAUUUUCGGCGGAUGCCUCCAAA

Legend:
Settings in all cases: with glucosamine-6-phosphate
glucosamine-6-phosphate [1] = variants of: B1; assay: self-cleavage kobs at 640 uM GlcN6P; higher = faster cleavage; RNA array
Procedure, shortened: (§1)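 Tiles of sequenced MiSeq chips were imaged over ~14 h at 37 °C. On them, barcoded ribozyme variants had been transcribed in situ by E. coli RNA polymerase and were tracked via a hybridised Cy3 probe while glucosamine-6-phosphate (40 μM to 10 mM) in HEPES/KCl/Mg(OAc)2 buffer flowed in. Per-tile medians, normalised to baseline and to non-cleaving reference variants, were fit to one- or two-exponential decays for kobs, and weighted Michaelis–Menten fits gave kcat and KM.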

glucosamine-6-phosphate [2] = variants of: B1; assay: self-cleavage kobs at 2500 uM GlcN6P; higher = faster cleavage; RNA array
Procedure, shortened: as §1

glucosamine-6-phosphate [3] = variants of: B1; assay: self-cleavage kobs at 10000 uM GlcN6P; higher = faster cleavage; RNA array
Procedure, shortened: as §1

Variant | self-cleavage kobs at 640 uM GlcN6P (glucosamine-6-phosphate [1]) [s⁻¹] | self-cleavage kobs at 2500 uM GlcN6P (glucosamine-6-phosphate [2]) [s⁻¹] | self-cleavage kobs at 10000 uM GlcN6P (glucosamine-6-phosphate [3]) [s⁻¹]
AUAAAAGCGCCAGAACUACAGAAAUGUAGUUGACGAGGCGGAGGUUUAUCGAAUUUUCGUCGGAUUCCUCCAAA [A39C G60U G66U] | < 1e-05 | < 1e-05 | 
AUAAAAGCGCCAGAACUACAGAAAUGUAGUUGACGAGUAGGAGGUUUAUCGAAUUGUCGGCGGAUGCCUACAAA [G38U U56G C70A] | 0.000333 ± 0.00015 |  | 
AUAAAAGCGCCAGAACUACAGAAAUGUAGUUGACGAGGCGGGGGUUUAUCGAAUUUUCGCCGGAUGCCUCCAAA [A39C A42G G60C] | < 1e-05 | < 1e-05 | 
AUAAAAGCGCCAGAACUACAGAAAUGUAGUUGACGAGGAGCAGGUGUAUCGAACUUUCGGCGGAUGCCUGCAAA [G41C U46G U54C C70G] | 0.00305 ± 0.00089 | 0.00908 ± 0.0027 | 
AUAAAAGCGCCAGAACUACAGAAAUGUAGUUGACGAGGUGGAGGUAUAUCGAAUUUUCGGCGGAUGCCUCCAAA [A39U U46A] | 0.000305 ± 7.5e-05 | 0.000711 ± 0.00023 | 0.00219 ± 0.00035
AUAAAAGCGCCAGAACUACAGAAAUGUAGUUGACGAGGAUGAGGUUUAACGAAUUUUCGGCGGAUGCCUCCAAA [G40U U49A] | < 1e-05 | < 1e-05 | < 1e-05
AUAAAAGCGCCAGAACUACAGAAAUGUAGUUGACGAGGAGCAGGUUUAUCUAAUGUUCGGCGGAUGCCUCCAAA [G41C G51U U55G] | < 1e-05 | < 1e-05 | 
AUAAAAGCGCCAGAACUACAGAAAUGUAGUUGACGAGGUUGAGGUUUAUCGAAUUUUCGGCGGAUGACUCCAAA [A39U G40U C67A] | 0.000118 ± 2.9e-05 | 0.000561 ± 0.00019 | 
AUAAAAGCGCCAGAACUACAGAAAUGUAGUUGACGAGGAGUAGUCUUAUCGAAUUUUCGGCGGAUGCCUCCAAA [G41U G44U U45C] | < 1e-05 | < 1e-05 | 
AUAAAAGCGCCAGAACUACAGAAAUGUAGUUGACGAGGAGCAGGCUUAUUGAAUUUUCGGCGGAUGCCUCCAAA [G41C U45C C50U] | < 1e-05 | < 1e-05 | 
AUAAAAGCGCCAGAACUACAGAAAUGUAGUUGACGAGGAGUAGGGUAAUCGAAUUUUCGGCGGAUGCCUCUAAA [G41U U45G U47A C71U] | 5.62e-05 ± 2.2e-05 |  | 
AUAAAAGCGCCAGAACUACAGAAAUGUAGUUGACGAGGAGUAGGUUGAUGGAAUUUUCGGCGGAUGCCUCCAAA [G41U U47G C50G] | < 1e-05 |  | 
AUAAAAGCGCCAGAACUACAGAAAUGUAGUUGACGAGGAUGAUGUUUAUCCAAUUUUCGGCGGACGCCUCCAAA [G40U G43U G51C U65C] | < 1e-05 |  | 
AUAAAAGCGCCAGAACUACAGAAAUGUAGUUGACGAGUAGGACGUUUAUCGAUUUUUCGGCGGAUGCCUCCAAA [G38U G43C A53U] | < 1e-05 | < 1e-05 | 
AUAAAAGCGCCAGAACUACAGAAAUGUAGUUGACGAGGAGAAGUUUUAUCGAAUUUUCGGCGGAUGCCUACAAA [G41A G44U C70A] | < 1e-05 |  | 
AUAAAAGCGCCAGAACUACAGAAAUGUAGUUGACGAGGACGAGGUUUAUCGAACUAUCGGCGGAUGCCUCCAAA [G40C U54C U56A] | 0.000313 ± 5.9e-05 | 0.000505 ± 0.00011 | 
AUAAAAGCGCCAGAACUACAGAAAUGUAGUUGACGAGGAUGAGGUUUAUCGAAUUUUCCGCGGAUGCCUCUAAA [G40U G59C C71U] | < 1e-05 | < 1e-05 | 
AUAAAAGCGCCAGAACUACAGAAAUGUAGUUGACGAGGCGGAGGUUUAUCGAAUUUUGGGCGGAUGGCUCGAAA [A39C C58G C67G C71G] | < 1e-05 |  | 
AUAAAAGCGCCAGAACUACAGAAAUGUAGUUGACGAGGAGGCGGUUUAUCGACUUUUCGACGGAUGCCUCCAAA [A42C A53C G60A] | < 1e-05 | < 1e-05 | 
AUAAAAGCGCCAGAACUACAGAAAUGUAGUUGACGAGGAGAAGGUUUAUCCAAUUUUCGGCGGCUGCCUCCAAA [G41A G51C A64C] | < 1e-05 |  | 
AUAAAAGCGCCAGAACUACAGAAAUGUAGUUGACGAGGAUGAGGUUUAUCGAAUUUUCGGGGGAGGCCUCCAAA [G40U C61G U65G] | < 1e-05 | < 1e-05 | 
